Results reported in article PMC2527131.

Biological target: BLyS receptors on human B cells (human (endogenous in peripheral blood B cells))

Substance	nuclear localization of NF-κB p52 in human B cells after 48 h with 100 ng/ml BLyS (Western blot of nuclear extracts, three B cell preparations), fold over unstimulated B cells [fold]
FLAG-tagged murine BLyS (from UniProt Q9WU72 127-309) (ligand)	2.4
recombinant human FLAG-tagged BLyS (from UniProt Q9Y275 134-285) (ligand)	7.1
